In patent US20240059789A1 (Janssen / Centocor, published 2024):

Experiments:
[1] = molecular target: T1, Human PSMA on prostate cancer cell lines (C4-2B, 22RV1) (human, UniProt Q04609 1-750); test: binding curves on C4-2B cells, 37 C, 1 h incubation, four-parameter fit
T1 construct: Endogenous PSMA of the human cell lines; also called PSMA+ cells; PSMA-expressing cell lines
Experimental: Molecule concentrations ranged from 500-0 nM over 12-points at 3-fold dilution. […] Values reported in the Table 32 were generated by fitting the data to a four-parameter function for ligand binding generating values for y-min, y-max, EC50, and Hill. EC90 were calculated using the equation EC90=(90[…](100−90))\hat{ }(1/Hill)*EC50.

[2] = molecular target: T1, Human PSMA on prostate cancer cell …; test: flow cytometry on C4-2B cells
Experimental: Selected anti-PSMA antibodies were evaluated for binding to commercial prostate cancer cell lines. C4-2B cells were originally developed at MD Anderson and are derived from LNCaP FGC grown in vivo and metastasize to bone marrow (Thalmann, et al 1994, Cancer Research 54, 2577-81). 22Rv1 cells are a human prostate carcinoma epithelial cell line derived from a xenograft that was serially propagated in mice after castration-induced regression and relapse of the parental, androgen-dependent CWR22 xenograft. 22RV1 and C4-2B cells were plated at 50,000 cells per well in 50 μl of assay medium (RPMI, 10% HI FBS) in V bottom plates. Serial dilutions of antibodies were prepared in assay medium with 50 μl of antibody dilutions added to the plates containing cells. The plates were incubated for 60 min at 37° C. at which time 100 μl of staining buffer (Becton Dickinson Cat #554657) was added to all wells of each plate. The plates were centrifuged at 300×G for 5 minutes and the medium was removed from the wells. 200 μl of staining buffer was added to all wells of each plate. The plates were centrifuged at 300×G for 5 minutes and the medium was removed from the wells. 50 μl of 2 μg/ml AlexaFluor647-labeled goat anti-human Fc was added to all wells of the plates and the plates were incubated for 30 minutes at 4° C. 150 μl of staining buffer was added to all wells of each plate. The plates were centrifuged at 300×G for 5 minutes and the medium was removed from the wells.

[3] = molecular target: T2, Human PSMA ECD (Lys44-Ala750), N-6xHis (PSMW39) (human, UniProt Q04609 44-750); test: SPR Biacore 8K, mAb captured by anti-Fc, antigen in solution
T2 construct: also called PSMW39.002; hu PSMA
Experimental: (§1) The association and dissociation were monitored for 3 and 15 minutes, respectively, using a flow rate of 50 μL/min. Raw binding data was referenced by subtracting the analyte binding signals from blanks and analyzed using a 1:1 Langmuir binding model using the Biacore Insight evaluation software to obtain the kinetics, which were used to calculate the binding affinity. The anti-PSMA were captured using an anti-human Fc antibody and the antigens were injected in solution.

[4] = molecular target: T3, Avi-6xHis-GS-cyno PSMA ECD (PSMW1) (Macaca fascicularis, UniProt Q04609 48-750 (human entry)); test: as above
T3 construct: also called PSMW1.009; cy PSMA
T3 chain: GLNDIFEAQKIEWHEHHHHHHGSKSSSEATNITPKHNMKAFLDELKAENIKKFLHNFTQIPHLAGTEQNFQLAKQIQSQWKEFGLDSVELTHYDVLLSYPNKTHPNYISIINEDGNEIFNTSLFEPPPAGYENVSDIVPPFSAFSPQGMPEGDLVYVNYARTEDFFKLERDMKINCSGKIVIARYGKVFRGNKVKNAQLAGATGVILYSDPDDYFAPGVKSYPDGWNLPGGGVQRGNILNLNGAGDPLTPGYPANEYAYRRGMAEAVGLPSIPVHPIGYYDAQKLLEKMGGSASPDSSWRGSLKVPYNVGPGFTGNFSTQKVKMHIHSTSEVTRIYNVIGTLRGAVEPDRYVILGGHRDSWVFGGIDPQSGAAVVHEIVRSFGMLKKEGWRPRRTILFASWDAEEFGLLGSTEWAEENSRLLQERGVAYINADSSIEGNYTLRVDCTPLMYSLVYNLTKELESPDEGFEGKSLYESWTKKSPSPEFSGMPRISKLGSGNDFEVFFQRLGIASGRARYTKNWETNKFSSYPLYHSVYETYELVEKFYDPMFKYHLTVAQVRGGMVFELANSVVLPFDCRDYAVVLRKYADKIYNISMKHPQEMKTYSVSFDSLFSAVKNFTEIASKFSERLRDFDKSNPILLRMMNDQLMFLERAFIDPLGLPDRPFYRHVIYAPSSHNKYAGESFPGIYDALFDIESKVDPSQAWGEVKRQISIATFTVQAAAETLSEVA
Experimental: as §1

[5] = molecular target: Avi-6xHis-GS-mouse PSMA (45-752) (PSMW29) (Mus musculus, UniProt O35409 45-752); test: as above
Experimental: as §1

[6] = molecular target: T1, Human PSMA on prostate cancer cell …; test: flow cytometry on 22RV1 cells; 22RV1 cells

T1 sequence (Q04609 whole entry): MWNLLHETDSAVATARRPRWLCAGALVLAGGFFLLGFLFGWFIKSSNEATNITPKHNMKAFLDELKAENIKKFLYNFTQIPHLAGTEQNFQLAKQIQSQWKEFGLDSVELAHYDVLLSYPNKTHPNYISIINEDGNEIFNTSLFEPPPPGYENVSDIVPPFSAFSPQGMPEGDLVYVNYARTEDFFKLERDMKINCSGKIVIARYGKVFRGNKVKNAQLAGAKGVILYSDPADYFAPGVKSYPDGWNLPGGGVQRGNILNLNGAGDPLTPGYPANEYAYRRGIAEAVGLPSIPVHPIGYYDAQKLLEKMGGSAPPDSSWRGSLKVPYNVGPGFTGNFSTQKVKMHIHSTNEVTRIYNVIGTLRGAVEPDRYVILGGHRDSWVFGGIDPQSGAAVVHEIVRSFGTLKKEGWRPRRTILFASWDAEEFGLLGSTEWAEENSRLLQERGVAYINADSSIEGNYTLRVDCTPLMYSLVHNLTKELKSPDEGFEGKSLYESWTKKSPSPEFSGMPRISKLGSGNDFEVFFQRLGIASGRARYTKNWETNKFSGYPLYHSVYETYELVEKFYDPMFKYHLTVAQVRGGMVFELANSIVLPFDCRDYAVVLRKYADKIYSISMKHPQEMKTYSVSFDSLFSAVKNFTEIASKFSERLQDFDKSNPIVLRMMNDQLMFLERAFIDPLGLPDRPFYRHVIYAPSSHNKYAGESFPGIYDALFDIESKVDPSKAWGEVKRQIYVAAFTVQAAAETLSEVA
T2 sequence (Q04609 other isoform, or with tags, fused parts or gaps): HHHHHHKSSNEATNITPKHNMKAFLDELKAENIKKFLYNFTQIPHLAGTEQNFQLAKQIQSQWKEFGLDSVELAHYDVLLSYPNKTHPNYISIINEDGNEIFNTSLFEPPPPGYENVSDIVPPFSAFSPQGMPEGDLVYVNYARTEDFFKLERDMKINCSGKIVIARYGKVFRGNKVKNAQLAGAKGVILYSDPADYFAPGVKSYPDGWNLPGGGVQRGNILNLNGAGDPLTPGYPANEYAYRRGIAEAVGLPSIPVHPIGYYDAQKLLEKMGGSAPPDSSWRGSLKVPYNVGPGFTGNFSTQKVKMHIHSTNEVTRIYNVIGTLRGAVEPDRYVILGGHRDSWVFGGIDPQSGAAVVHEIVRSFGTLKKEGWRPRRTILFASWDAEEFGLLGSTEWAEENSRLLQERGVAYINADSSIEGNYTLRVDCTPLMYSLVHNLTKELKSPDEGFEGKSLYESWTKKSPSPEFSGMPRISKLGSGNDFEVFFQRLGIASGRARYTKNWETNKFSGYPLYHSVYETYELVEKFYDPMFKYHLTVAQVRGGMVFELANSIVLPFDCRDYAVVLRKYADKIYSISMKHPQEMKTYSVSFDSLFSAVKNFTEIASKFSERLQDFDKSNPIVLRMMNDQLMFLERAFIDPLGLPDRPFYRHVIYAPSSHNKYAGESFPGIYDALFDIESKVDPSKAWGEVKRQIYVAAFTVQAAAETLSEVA

B1: PSMB1069 (bispecific antibody, human IgG1, kappa, L234A L235A)
heavy: not shown
light: not shown
chain: QVQLVESGGGEVQPGRSLRLSCAASGFSFSGYGMHWVRQAPGKGLEWVAVMSYDGSNRFYVDSVRGRFSISRDNSKNTLYLQMNSLRPEDTAVYYCARDTVWGSHPDAFDIWGQGTVVTVSSGGSEGKSSGSGSESKSTGGSQSVLTQPPSVSVAPGQTARITCGGNNSGSKSVHWYQQKPGQAPVLVVYDDSDRPSGIPERFSGSNSGNTATLTISRVEAGDEADYYCQVWDSSSDHGVFGGGTKLTVLEPKSSDKTHTCPPCPAPEAAGGPSVFLFPPKPKDTLMISRTPEVTCVVVSVSHEDPEVKFNWYVDGVEVHNAKTKPREEQYNSTYRVVSVLTVLHQDWLNGKEYKCKVSNKALPAPIEKTISKAKGQPREPQVYVLPPSREEMTKNQVSLLCLVKGFYPSDIAVEWESNGQPENNYLTWPPVLDSDGSFFLYSKLTVDKSRWQQGNVFSCSVMHEALHNHYTQKSLSLSPG
notes: Null CD3 arm; one PSMA scFv; also called HC1 (ZWA): B23B62-Fab
For B1, which “fold binding signal (Y-max) over the average of the molecules” value [1] is on record?
The value was 2 fold.

B2: PSMB892 (antibody, human IgG1, lambda, L234A L235A, V domains shown)
VH: EVQLVESGGGVVQPGRSLRLSCAASGFTFITYGMHWVRQAPGKGLEWVAVVSFDESNKYYADSVKGRFTISRDNSKNTLYLQMNSLRAEDTAVYYCARALRDGNNWDYFNGMDVWGQGTTVTVSS
VL: QSVLTQPPSVSGAPGQRVTISCTGSSSNIGADYDVHWYQHLPGTAPKLLIYGNSNRPSGVPDRFSGSKSGTSASLAITGLQAEDETDYYCQSYDSSLSGWVFGGGTKLTVLG
What does the source list for B2?
EC50 [2]: 22.4 nM; Kd [3]: 3.22 nM; Kd [4]: 5.67 nM; Kd [5]: 0.404 nM; EC50 [6]: > 60 nM
